Results reported in PMC4135234.
Like-named read-outs stand apart in the source and are kept apart here.

T1: GST-FLAG-LIN28A (human, UniProt Q9H9Z2 1-209)
T1 sequence: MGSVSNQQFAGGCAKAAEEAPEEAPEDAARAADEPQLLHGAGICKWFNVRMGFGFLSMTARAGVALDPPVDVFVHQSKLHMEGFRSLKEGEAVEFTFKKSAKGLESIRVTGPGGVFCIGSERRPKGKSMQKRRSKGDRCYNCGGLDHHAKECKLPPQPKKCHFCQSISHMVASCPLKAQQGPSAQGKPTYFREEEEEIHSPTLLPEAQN


What was measured:
[1] = biological target: GST-FLAG-p53 (human, UniProt P04637 1-393); experiment: fluorescence polarization
[2] = biological target: GST-FLAG-MSI1 (human, UniProt O43347 1-362); experiment: competition
[3] = biological target: T2, GST-FLAG-MSI2 (human, UniProt Q96DH6 1-328); experiment: competition
[4] = biological target: T2, GST-FLAG-MSI2; experiment: competition; remark: listed apart in the source
[5] = biological target: T1, GST-FLAG-LIN28A; experiment: competition

T2 sequence (Q96DH6 whole entry): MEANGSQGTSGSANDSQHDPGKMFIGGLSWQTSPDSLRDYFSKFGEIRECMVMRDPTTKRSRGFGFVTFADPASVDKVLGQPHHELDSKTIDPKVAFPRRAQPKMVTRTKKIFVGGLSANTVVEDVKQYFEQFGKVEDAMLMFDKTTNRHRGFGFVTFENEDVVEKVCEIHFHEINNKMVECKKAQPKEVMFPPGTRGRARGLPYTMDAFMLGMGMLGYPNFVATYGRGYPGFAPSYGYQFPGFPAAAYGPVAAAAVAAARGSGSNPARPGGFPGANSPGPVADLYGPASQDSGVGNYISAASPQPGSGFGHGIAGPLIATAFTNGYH
Chain of GST-FLAG-MSI1 (O43347 whole entry): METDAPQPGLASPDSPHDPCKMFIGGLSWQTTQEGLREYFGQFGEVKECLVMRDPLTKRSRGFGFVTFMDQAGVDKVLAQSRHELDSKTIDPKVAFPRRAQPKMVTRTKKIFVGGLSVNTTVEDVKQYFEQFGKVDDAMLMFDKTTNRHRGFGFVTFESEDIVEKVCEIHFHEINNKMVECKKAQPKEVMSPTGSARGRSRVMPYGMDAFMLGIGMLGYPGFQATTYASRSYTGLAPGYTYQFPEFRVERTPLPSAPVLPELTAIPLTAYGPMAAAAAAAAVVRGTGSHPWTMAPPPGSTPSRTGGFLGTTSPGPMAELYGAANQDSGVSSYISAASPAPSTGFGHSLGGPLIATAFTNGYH
Chain of GST-FLAG-p53 (P04637 whole entry): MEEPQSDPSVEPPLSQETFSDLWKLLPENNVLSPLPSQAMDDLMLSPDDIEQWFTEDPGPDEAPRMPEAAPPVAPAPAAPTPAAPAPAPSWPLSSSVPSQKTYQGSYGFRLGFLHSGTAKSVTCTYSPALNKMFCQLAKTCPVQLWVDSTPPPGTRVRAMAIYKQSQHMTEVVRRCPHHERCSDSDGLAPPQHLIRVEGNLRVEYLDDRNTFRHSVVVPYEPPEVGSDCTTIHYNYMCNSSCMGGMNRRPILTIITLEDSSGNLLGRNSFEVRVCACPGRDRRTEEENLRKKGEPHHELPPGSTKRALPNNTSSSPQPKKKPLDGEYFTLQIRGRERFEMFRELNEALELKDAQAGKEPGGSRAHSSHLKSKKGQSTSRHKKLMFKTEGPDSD

Binder | binding result [1] | IC50 [2] | IC50 [3] | IC50 [4] | IC50 [5]
GUAGUAGU (ssRNA, 5' C9 spacer) [MSI FP oligo (Cy3-C9-Oligo #5)] | no binding | – | – | – | –
GUAGUAGU (ssRNA) [MSI Oligo #5 (unlabeled MSI FP oligo)] | – | 5600 nM | 4600 nM | 1300 ± 200 nM | 500 nM
